US20110118447A1

Legend:
[1] = molecular target: binding partner of C5A (XPA23); test: Biacore
[2] = molecular target: binding partner of C5A (XPA23); test: Biacore, K-off

fold difference in affinity vs original [1]	fold difference in affinity vs original [2]	fold affinity vs original [1]	Binder
0.04 fold	0.04 fold		C5A (XPA23) VH S52T (antibody, V domains shown) VH: EVQLLESGGGLVQPGGSLRLSCAASGFTFSKYFMFWVRQAPGKGLEWVSVITPSGGMTRYADSVKGRFTISRDNSKNTLYLQMNSLRAEDTAVYYCARVGYGGNSDYWGQGTLVTVSS VL: DIQMTQSPSSVSASVGDRLTIICRASQDINRWLAWYQQTPGNAPKLLIHSATSLQSGVPSRFSGSGSGTDFTLTINSLQPEDFATYYCQQADSFPLTFGGGTKVEIK
	0.95 fold	0.95 fold	C5A (XPA23) VH G55R (antibody, V domains shown) VH: EVQLLESGGGLVQPGGSLRLSCAASGFTFSKYFMFWVRQAPGKGLEWVSVISPSRGMTRYADSVKGRFTISRDNSKNTLYLQMNSLRAEDTAVYYCARVGYGGNSDYWGQGTLVTVSS VL: DIQMTQSPSSVSASVGDRLTIICRASQDINRWLAWYQQTPGNAPKLLIHSATSLQSGVPSRFSGSGSGTDFTLTINSLQPEDFATYYCQQADSFPLTFGGGTKVEIK
	0.04 fold	0.04 fold	C5A (XPA23) VH P53K (antibody, V domains shown) VH: EVQLLESGGGLVQPGGSLRLSCAASGFTFSKYFMFWVRQAPGKGLEWVSVISKSGGMTRYADSVKGRFTISRDNSKNTLYLQMNSLRAEDTAVYYCARVGYGGNSDYWGQGTLVTVSS VL: DIQMTQSPSSVSASVGDRLTIICRASQDINRWLAWYQQTPGNAPKLLIHSATSLQSGVPSRFSGSGSGTDFTLTINSLQPEDFATYYCQQADSFPLTFGGGTKVEIK
	0.03 fold	0.03 fold	C5A (XPA23) VH P53Q (antibody, V domains shown) VH: EVQLLESGGGLVQPGGSLRLSCAASGFTFSKYFMFWVRQAPGKGLEWVSVISQSGGMTRYADSVKGRFTISRDNSKNTLYLQMNSLRAEDTAVYYCARVGYGGNSDYWGQGTLVTVSS VL: DIQMTQSPSSVSASVGDRLTIICRASQDINRWLAWYQQTPGNAPKLLIHSATSLQSGVPSRFSGSGSGTDFTLTINSLQPEDFATYYCQQADSFPLTFGGGTKVEIK
	0.11 fold	0.11 fold	C5A (XPA23) VH G55K (antibody, V domains shown) VH: EVQLLESGGGLVQPGGSLRLSCAASGFTFSKYFMFWVRQAPGKGLEWVSVISPSKGMTRYADSVKGRFTISRDNSKNTLYLQMNSLRAEDTAVYYCARVGYGGNSDYWGQGTLVTVSS VL: DIQMTQSPSSVSASVGDRLTIICRASQDINRWLAWYQQTPGNAPKLLIHSATSLQSGVPSRFSGSGSGTDFTLTINSLQPEDFATYYCQQADSFPLTFGGGTKVEIK
	0.03 fold	0.03 fold	C5A (XPA23) VH P53E (antibody, V domains shown) VH: EVQLLESGGGLVQPGGSLRLSCAASGFTFSKYFMFWVRQAPGKGLEWVSVISESGGMTRYADSVKGRFTISRDNSKNTLYLQMNSLRAEDTAVYYCARVGYGGNSDYWGQGTLVTVSS VL: DIQMTQSPSSVSASVGDRLTIICRASQDINRWLAWYQQTPGNAPKLLIHSATSLQSGVPSRFSGSGSGTDFTLTINSLQPEDFATYYCQQADSFPLTFGGGTKVEIK
	1.43 fold	1.43 fold	C5A (XPA23) VH S54R (antibody, V domains shown) VH: EVQLLESGGGLVQPGGSLRLSCAASGFTFSKYFMFWVRQAPGKGLEWVSVISPRGGMTRYADSVKGRFTISRDNSKNTLYLQMNSLRAEDTAVYYCARVGYGGNSDYWGQGTLVTVSS VL: DIQMTQSPSSVSASVGDRLTIICRASQDINRWLAWYQQTPGNAPKLLIHSATSLQSGVPSRFSGSGSGTDFTLTINSLQPEDFATYYCQQADSFPLTFGGGTKVEIK
	0.03 fold	0.03 fold	C5A (XPA23) VH S54E (antibody, V domains shown) VH: EVQLLESGGGLVQPGGSLRLSCAASGFTFSKYFMFWVRQAPGKGLEWVSVISPEGGMTRYADSVKGRFTISRDNSKNTLYLQMNSLRAEDTAVYYCARVGYGGNSDYWGQGTLVTVSS VL: DIQMTQSPSSVSASVGDRLTIICRASQDINRWLAWYQQTPGNAPKLLIHSATSLQSGVPSRFSGSGSGTDFTLTINSLQPEDFATYYCQQADSFPLTFGGGTKVEIK
	0.12 fold	0.12 fold	C5A (XPA23) VH S54D (antibody, V domains shown) VH: EVQLLESGGGLVQPGGSLRLSCAASGFTFSKYFMFWVRQAPGKGLEWVSVISPDGGMTRYADSVKGRFTISRDNSKNTLYLQMNSLRAEDTAVYYCARVGYGGNSDYWGQGTLVTVSS VL: DIQMTQSPSSVSASVGDRLTIICRASQDINRWLAWYQQTPGNAPKLLIHSATSLQSGVPSRFSGSGSGTDFTLTINSLQPEDFATYYCQQADSFPLTFGGGTKVEIK
	1.53 fold	1.53 fold	C5A (XPA23) VH S54K (antibody, V domains shown) VH: EVQLLESGGGLVQPGGSLRLSCAASGFTFSKYFMFWVRQAPGKGLEWVSVISPKGGMTRYADSVKGRFTISRDNSKNTLYLQMNSLRAEDTAVYYCARVGYGGNSDYWGQGTLVTVSS VL: DIQMTQSPSSVSASVGDRLTIICRASQDINRWLAWYQQTPGNAPKLLIHSATSLQSGVPSRFSGSGSGTDFTLTINSLQPEDFATYYCQQADSFPLTFGGGTKVEIK
0.14 fold	0.14 fold		C5A (XPA23) VH S54T (antibody, V domains shown) VH: EVQLLESGGGLVQPGGSLRLSCAASGFTFSKYFMFWVRQAPGKGLEWVSVISPTGGMTRYADSVKGRFTISRDNSKNTLYLQMNSLRAEDTAVYYCARVGYGGNSDYWGQGTLVTVSS VL: DIQMTQSPSSVSASVGDRLTIICRASQDINRWLAWYQQTPGNAPKLLIHSATSLQSGVPSRFSGSGSGTDFTLTINSLQPEDFATYYCQQADSFPLTFGGGTKVEIK
	0.08 fold	0.08 fold	C5A (XPA23) VH S54N (antibody, V domains shown) VH: EVQLLESGGGLVQPGGSLRLSCAASGFTFSKYFMFWVRQAPGKGLEWVSVISPNGGMTRYADSVKGRFTISRDNSKNTLYLQMNSLRAEDTAVYYCARVGYGGNSDYWGQGTLVTVSS VL: DIQMTQSPSSVSASVGDRLTIICRASQDINRWLAWYQQTPGNAPKLLIHSATSLQSGVPSRFSGSGSGTDFTLTINSLQPEDFATYYCQQADSFPLTFGGGTKVEIK
	0.1 fold	0.1 fold	C5A (XPA23) VH G55N (antibody, V domains shown) VH: EVQLLESGGGLVQPGGSLRLSCAASGFTFSKYFMFWVRQAPGKGLEWVSVISPSNGMTRYADSVKGRFTISRDNSKNTLYLQMNSLRAEDTAVYYCARVGYGGNSDYWGQGTLVTVSS VL: DIQMTQSPSSVSASVGDRLTIICRASQDINRWLAWYQQTPGNAPKLLIHSATSLQSGVPSRFSGSGSGTDFTLTINSLQPEDFATYYCQQADSFPLTFGGGTKVEIK
	0.03 fold	0.03 fold	C5A (XPA23) VH P53S (antibody, V domains shown) VH: EVQLLESGGGLVQPGGSLRLSCAASGFTFSKYFMFWVRQAPGKGLEWVSVISSSGGMTRYADSVKGRFTISRDNSKNTLYLQMNSLRAEDTAVYYCARVGYGGNSDYWGQGTLVTVSS VL: DIQMTQSPSSVSASVGDRLTIICRASQDINRWLAWYQQTPGNAPKLLIHSATSLQSGVPSRFSGSGSGTDFTLTINSLQPEDFATYYCQQADSFPLTFGGGTKVEIK
	1.01 fold	1.01 fold	C5A (XPA23) VH S54Q (antibody, V domains shown) VH: EVQLLESGGGLVQPGGSLRLSCAASGFTFSKYFMFWVRQAPGKGLEWVSVISPQGGMTRYADSVKGRFTISRDNSKNTLYLQMNSLRAEDTAVYYCARVGYGGNSDYWGQGTLVTVSS VL: DIQMTQSPSSVSASVGDRLTIICRASQDINRWLAWYQQTPGNAPKLLIHSATSLQSGVPSRFSGSGSGTDFTLTINSLQPEDFATYYCQQADSFPLTFGGGTKVEIK
	0.06 fold	0.06 fold	C5A (XPA23) VH P53N (antibody, V domains shown) VH: EVQLLESGGGLVQPGGSLRLSCAASGFTFSKYFMFWVRQAPGKGLEWVSVISNSGGMTRYADSVKGRFTISRDNSKNTLYLQMNSLRAEDTAVYYCARVGYGGNSDYWGQGTLVTVSS VL: DIQMTQSPSSVSASVGDRLTIICRASQDINRWLAWYQQTPGNAPKLLIHSATSLQSGVPSRFSGSGSGTDFTLTINSLQPEDFATYYCQQADSFPLTFGGGTKVEIK
	1.02 fold	1.02 fold	C5A (XPA23) VH G55S (antibody, V domains shown) VH: EVQLLESGGGLVQPGGSLRLSCAASGFTFSKYFMFWVRQAPGKGLEWVSVISPSSGMTRYADSVKGRFTISRDNSKNTLYLQMNSLRAEDTAVYYCARVGYGGNSDYWGQGTLVTVSS VL: DIQMTQSPSSVSASVGDRLTIICRASQDINRWLAWYQQTPGNAPKLLIHSATSLQSGVPSRFSGSGSGTDFTLTINSLQPEDFATYYCQQADSFPLTFGGGTKVEIK
	0.03 fold	0.03 fold	C5A (XPA23) VH P53Y (antibody, V domains shown) VH: EVQLLESGGGLVQPGGSLRLSCAASGFTFSKYFMFWVRQAPGKGLEWVSVISYSGGMTRYADSVKGRFTISRDNSKNTLYLQMNSLRAEDTAVYYCARVGYGGNSDYWGQGTLVTVSS VL: DIQMTQSPSSVSASVGDRLTIICRASQDINRWLAWYQQTPGNAPKLLIHSATSLQSGVPSRFSGSGSGTDFTLTINSLQPEDFATYYCQQADSFPLTFGGGTKVEIK
	0.11 fold	0.11 fold	C5A (XPA23) VH G55E (antibody, V domains shown) VH: EVQLLESGGGLVQPGGSLRLSCAASGFTFSKYFMFWVRQAPGKGLEWVSVISPSEGMTRYADSVKGRFTISRDNSKNTLYLQMNSLRAEDTAVYYCARVGYGGNSDYWGQGTLVTVSS VL: DIQMTQSPSSVSASVGDRLTIICRASQDINRWLAWYQQTPGNAPKLLIHSATSLQSGVPSRFSGSGSGTDFTLTINSLQPEDFATYYCQQADSFPLTFGGGTKVEIK
	0.99 fold	0.99 fold	C5A (XPA23) VH S54Y (antibody, V domains shown) VH: EVQLLESGGGLVQPGGSLRLSCAASGFTFSKYFMFWVRQAPGKGLEWVSVISPYGGMTRYADSVKGRFTISRDNSKNTLYLQMNSLRAEDTAVYYCARVGYGGNSDYWGQGTLVTVSS VL: DIQMTQSPSSVSASVGDRLTIICRASQDINRWLAWYQQTPGNAPKLLIHSATSLQSGVPSRFSGSGSGTDFTLTINSLQPEDFATYYCQQADSFPLTFGGGTKVEIK
